Measurements from the supplement of paper PMC12042874.
± gives the uncertainty stated by the source.

Assay: amyloid nucleation score (Sup35N fusion, yeast selection) (log enrichment); library NNK1; higher = more nucleation; inactive = no reads after selection
How it was run: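 Peptides of 20 random codons fused to Sup35N were expressed in psi-negative yeast, induced 24 hours with 100 μM copper sulfate, then grown 7 days at 30°C on medium lacking adenine and uracil. Input and output plasmid inserts were Illumina-sequenced. Nucleation score is the DiMSum log enrichment of output over input reads, centred on the mode score of non-aggregating sequences, excluding sequences with under 100 input reads. Random libraries had three technical output replicates.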

Row | Substance | amyloid nucleation score
1 | SGHFILHGFYFCYKKCALIY | 1.06 ± 0.81
2 | SGILNAKLNSIGIEKSYAGF | -2.07 ± 2.4
3 | SGKCIFSFE | -0.065 ± 0.34
4 | SGKGFFDKSKFLVVMRGRTR | 0.06 ± 0.39
5 | SGKGMPNMNIPFHMWYQICY | 0.001 ± 0.33
6 | SGKSNSKPALEYYVSFFIDL | -0.52 ± 0.55
7 | SGNGRRWSVLTDLAMLLLWL | -0.316 ± 0.41
8 | SGRGWEAYIYCWVRLVRLVW | -0.463 ± 0.35
9 | SGSVTVCGIATTPCNMGDRK | 0.405 ± 0.79
10 | SGSWNMCNHVRVNCYAIDKV | 0.167 ± 0.3
11 | SGWRSHKLLVSSSCMNARSY | -0.837 ± 0.48
12 | SGYLVSSELREFQ | 4.28 ± 0.11
13 | SGYTGDDFQLKVEG | -0.307 ± 0.39
14 | SGYVNFHL | inactive
15 | SHASSSSSGCAYQSLVIWIN | 4.45 ± 0.081
16 | SHATFRVWHTVVVAV | -0.031 ± 0.34
17 | SHENSRSNNISSHQP | -0.513 ± 0.34
18 | SHNEG | 1.34 ± 0.41
19 | SHTWKGTSCAFAMHAQRGSQ | inactive
20 | SHVEVDEEQVFSMSMVPTGE | -0.106 ± 0.46
21 | SHVFAIRT | 0.574 ± 0.77
22 | SIFLSNILNDTWFLSALSCM | -1.41 ± 0.53
23 | SIGCIYRSSKSGDVSISY | -0.057 ± 0.37
24 | SIGYMNLDRVI | -0.944 ± 0.39

Row | Substance | amyloid nucleation score
25 | SIHVVVTQLALISLLNVKSV | inactive
26 | SILCIF | 0.338 ± 1.2
27 | SILFATAFMPVGLRLNDVLS | -0.003 ± 0.46
28 | SILKIALTH | -1.71 ± 1.4
29 | SIRTVSLLR | -0.859 ± 0.42
30 | SITVKKES | 0.254 ± 0.62
31 | SIWSGMLTGCFRLRSITWHN | 0.908 ± 0.24
32 | SIYET | 0.524 ± 0.49
33 | SIYSRGSVLANPCSFYAEVR | inactive
34 | SKARKIWYAWLVTPPMRQTE | 0.667 ± 0.3
35 | SKCVSIMAS | inactive
36 | SKESKSSEARLLIR | -1.39 ± 1.3
37 | SKIESHFWLVFNIRGSYNKA | 7.298 ± 0.046
38 | SKILGISKVNCGALL | -1.82 ± 1.8
39 | SKLIHYTSFLDYASSGEWKW | 2.81 ± 0.17
40 | SKMILEV | inactive
41 | SKSLFIIGTVPDRS | -0.467 ± 0.52
42 | SKVIESDSVCYILHRFKNQC | 1.09 ± 0.17
43 | SKVSVCNPSSLGSRVGGLAN | inactive
44 | SKYDLISRANVLFVSANYRH | 0.511 ± 0.76
45 | SLACRVGKYNHSYLSSLV | 0.583 ± 0.4
46 | SLAPLHLFERMGGRS | 0.532 ± 0.86
47 | SLAWSRMRCKFWSVSPSAFP | -0.352 ± 0.49
48 | SLCHAFYSVNNLAFCHSFTP | 6.539 ± 0.061

Row | Substance | amyloid nucleation score
49 | SLDLL | -0.244 ± 0.46
50 | SLILG | 0.083 ± 0.3
51 | SLMKELKF | -0.034 ± 0.73
52 | SLNVVLFCRPTGVCSHGIGW | 1.91 ± 0.26
53 | SLQFLSKPHLLRESVSESVD | 0.381 ± 0.35
54 | SLSMFLLTILTCYDGFIDIW | -0.372 ± 0.25
55 | SLVLSYRVASNIKNPMTLDY | 1.24 ± 0.15
56 | SLWAYNPV | 2.04 ± 0.38
57 | SLWTLWGFSFGDT | -0.458 ± 0.47
58 | SLYTKLAVPLGKWRIGYRLT | 0.46 ± 0.58
59 | SMIDFIRSFLYHSY | -1.1 ± 0.5
60 | SMMYKVSFGGGVFVLKLLVK | 0.266 ± 0.3
61 | SMVSFII | -0.278 ± 0.72
62 | SNAIDRAHPYRFGFCVNDVQ | -0.279 ± 0.47
63 | SNCFGSSIGNYFRYMFVAYW | 1.86 ± 0.47
64 | SNDCRMLWMIWKTGSACLDP | 0.271 ± 0.43
65 | SNFLFRCSIWDDMGGKCRSK | inactive
66 | SNILFLYRMKRALPNSSWEA | 0.152 ± 0.48
67 | SNKFKPVWRVLMSRVSVEAW | -0.133 ± 0.68
68 | SNLQWYRTKGGVGLVTVMWR | 0.981 ± 0.16
69 | SNNVFMAVNSSQRIQQFMLA | 1.03 ± 0.14
70 | SNNYLLCGIDGEVL | 1.07 ± 0.66
71 | SNPYVWDVPLSRLWFVSWEL | 0.068 ± 0.65
